Test results as given in the supplement of paper PMC12458215.
± gives the uncertainty stated by the source.

Test system: HEK293T
Assay: plasma membrane surface immunostaining intensity (anti-HA, deep receptor scanning) (arbitrary fluorescence units); higher = higher plasma membrane expression

Sequence | plasma membrane surface immunostaining intensity (GPCR class: A (Olfactory)) | plasma membrane surface immunostaining intensity (GPCR class: A)
MEEENATLLTEFVLTGFLYQPQWKIPLFLAFLVIYLITIMGNLGLIAVIWKDPHLHIPMYLLLGNLAFVDAWISSTVTPKMLNNFLAKSKMISLSECKIQFFSFAISVTTECFLLATMAYDRYVAICKPLLYPAIMTNGLCIRLLILSYVGGILHALIHEGFLFRLTFCNSNIVHHIYCDTIPLSKISCTDSSINFLMVFIFSGSIQVFSIVTILVSYTFVLFAILKKKSDKGVRKAFSTCGAHLFSVSLYYGPLLFIYVGPASPQADDQDMVEPLFYTVIIPLLNPIIYSLRNKQVTVSFTKMLKKHVKVSY [OR5H1] | 124 ± 20 | –
MGKTKNTSLDAVVTDFILLGLSHPPNLRSLLFLVFFIIYILTQLGNLLILLTMWADPKLCARPMYILLGVLSFLDMWLSSVTVPLLILDFTPSIKAIPFGGCVAQLYFFHFLGSTQCFLYTLMAYDRYLAICQPLRYPVLMNGRLCTVLVAGAWVAGSMHGSIQATLTFRLPYCGPNQVDYFICDIPAVLRLACADTTVNELVTFVDVGVVAASCFMLILLSYANIVNAILKIRTTDGRRRAFSTCGSHLIVVTVYYVPCIFIYLRAGSKDPLDGAAAVFYTVVTPLLNPLIYTLRNQEVKSALKRITAG [OR10G2] | 111 ± 16 | –
MAQQWSLQRLAGRHPQDSYEDSTQSSIFTYTNSNSTRGPFEGPNYHIAPRWVYHLTSVWMIFVVIASVFTNGLVLAATMKFKKLRHPLNWILVNLAVADLAETVIASTISVVNQVYGYFVLGHPMCVLEGYTVSLCGITGLWSLAIISWERWMVVCKPFGNVRFDAKLAIVGIAFSWIWAAVWTAPPIFGWSRYWPHGLKTSCGPDVFSGSSYPGVQSYMIVLMVTCCITPLSIIVLCYLQVWLAIRAVAKQQKESESTQKAEKEVTRMVVVMVLAFCFCWGPYAFFACFAAANPGYPFHPLMAALPAFFAKSATIYNPVIYVFMNRQFRNCILQLFGKKVDDGSELSSASKTEVSSVSSVSPA [OPN1MW3] | – | 288 ± 18
MRRNCTLVTEFILLGLTSRRELQILLFTLFLAIYMVTVAGNLGMIVLIQANAWLHMPMYFFLSHLSFVDLCFSSNVTPKMLEIFLSEKKSISYPACLVQCYLFIALVHVEIYILAVMAFDRYMAICNPLLYGSRMSKSVCSFLITVPYVYGALTGLMETMWTYNLAFCGPNEINHFYCADPPLIKLACSDTYNKELSMFIVAGWNLSFSLFIICISYLYIFPAILKIRSTEGRQKAFSTCGSHLTAVTIFYATLFFMYLRPPSKESVEQGKMVAVFYTTVIPMLNLIIYSLRNKNVKEALIKELSMKIYFS [OR5M8] | 115 ± 18 | –
METNFSIPLNETEEVLPEPAGHTVLWIFSLLVHGVTFVFGVLGNGLVIWVAGFRMTRTVNTICYLNLALADFSFSAILPFRMVSVAMREKWPFGSFLCKLVHVMIDINLFVSVYLITIIALDRCICVLHPAWAQNHRTMSLAKRVMTGLWIFTIVLTLPNFIFWTTISTTNGDTYCIFNFAFWGDTAVERLNVFITMAKVFLILHFIIGFSVPMSIITVCYGIIAAKIHRNHMIKSSRPLRVFAAVVASFFICWFPYELIGILMAVWLKEMLLNGKYKIILVLINPTSSLAFFNSCLNPILYVFMGRNFQERLIRSLPTSLERALTEVPDSAQTSNTDTTSASPPEETELQAM [FPR3] | – | 6430 ± 58
MAWENQTFNSDFILLGIFNHSPPHTFLFFLVLGIFLVAFMGNSVMVLLIYLDTQLHTPMYFLLSQLSLMDLMLICTTVPKMAFNYLSGSKSISMAGCVTQIFFYISLSGSECFLLAVMAYDRYIAICHPLRYTNLMNPKICGLMATFSWILGSTDGIIDAVATFSFSFCGSREIAHFFCEFPSLLILSCNDTSIFEEVIFICCIVMLVFPVAIIIASYARVILAVIHMGSGEGRCKAFTTCSSHLMVVGMYYGAALFMYIRPTSDHSPTQDKMVSVFYTILTPMLNPLIYSLRNKEVTRAFMKILGKGKSESELPHKLYVLLFAKFFFLISIFFYDVKILALIMYIA [OR2M2] | 134 ± 22 | –
MANYTLAPEDEYDVLIEGELESDEAEQCDKYDAQALSAQLVPSLCSAVFVIGVLDNLLVVLILVKYKGLKRVENIYLLNLAVSNLCFLLTLPFWAHAGGDPMCKILIGLYFVGLYSETFFNCLLTVQRYLVFLHKGNFFSARRRVPCGIITSVLAWVTAILATLPEFVVYKPQMEDQKYKCAFSRTPFLPADETFWKHFLTLKMNISVLVLPLFIFTFLYVQMRKTLRFREQRYSLFKLVFAIMVVFLLMWAPYNIAFFLSTFKEHFSLSDCKSSYNLDKSVHITKLIATTHCCINPLLYAFLDGTFSKYLCRCFHLRSNTPLQPRGQSAQGTSREEPDHSTEV [CCRL2] | – | 569 ± 46
